In patent US20250002610A1 (Genmab, published 2025):

T1: human FAPα (Fibroblast activation protein alpha), cell surface expressed (human, UniProt Q12884 1-760)
T1 construct: Endogenous on human lung fibroblasts and CAFs
T1 sequence: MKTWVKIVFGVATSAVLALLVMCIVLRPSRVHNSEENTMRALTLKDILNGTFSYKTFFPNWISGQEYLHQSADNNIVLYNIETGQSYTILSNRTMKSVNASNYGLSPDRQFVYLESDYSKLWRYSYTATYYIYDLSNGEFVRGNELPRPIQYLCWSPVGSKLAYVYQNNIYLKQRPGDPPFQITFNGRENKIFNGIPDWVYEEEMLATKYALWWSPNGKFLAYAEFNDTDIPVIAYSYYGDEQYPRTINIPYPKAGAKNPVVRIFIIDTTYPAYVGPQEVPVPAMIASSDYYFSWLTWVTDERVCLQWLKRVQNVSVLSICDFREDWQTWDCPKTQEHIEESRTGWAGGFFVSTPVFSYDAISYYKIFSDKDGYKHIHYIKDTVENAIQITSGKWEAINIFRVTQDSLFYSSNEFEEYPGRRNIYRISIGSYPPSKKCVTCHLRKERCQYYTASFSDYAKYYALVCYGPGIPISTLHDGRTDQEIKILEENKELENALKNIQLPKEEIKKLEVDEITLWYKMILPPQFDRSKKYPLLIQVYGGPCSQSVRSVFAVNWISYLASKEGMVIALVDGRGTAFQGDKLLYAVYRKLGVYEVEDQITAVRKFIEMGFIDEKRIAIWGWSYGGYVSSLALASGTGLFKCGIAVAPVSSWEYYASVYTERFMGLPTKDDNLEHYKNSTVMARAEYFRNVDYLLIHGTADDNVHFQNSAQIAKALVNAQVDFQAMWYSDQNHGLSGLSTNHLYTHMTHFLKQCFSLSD


Molecular target: T1, human FAPα (Fibroblast activation …)
Assay: flow cytometry, CAFs, average ± SEM
Procedure: Binding of bispecific or monoclonal antibodies carrying the anti-FAPα arm derived from IgG1-FAPα-FERL (BisG1-FAPα-FERL/DR4-FERR, BisG1-FAPα-FERL/b12-FERR, and IgG1-FAPα-FERL) to cell surface expressed human FAPα was analyzed by flow cytometry using human lung fibroblasts and CAFs, which endogenously express FAPα. BisG1-b12-FERL/b12-FERR was used as negative control.
Human lung fibroblasts and CAFs (50,000 cells/well) were seeded in 96-Well round bottom plates (Greiner Bio-one, Cat #650101). Antibody dilutions were prepared using fluorescence-activated cell sorting (FACS) buffer, consisting of phosphate buffer saline (PBS, Lonza, Cat #BE17-517Q)+1% Bovine Serum Albumin (BSA, Roche, Cat #10735086001)+0.02% Sodium Azide (Bio-World, Cat #41920044-3). Plates were centrifuged, supernatant was removed, cells were resuspended in 50 μL of human Fc Block (BD, Cat #564220, diluted 1:100 in FACS buffer) and 50 μL of viability stain TO-PRO-3 Iodide (Thermo Fisher, Cat #T3605, diluted 1: 25,000 in FACS buffer), and incubated for 15 min at 4° C. Plates were washed three times with FACS buffer. […] Antibody binding to viable cells (TO-PRO-3 negative) was analyzed by flow cytometry on a FACSCelesta™ (BD biosciences) and data were processed using FlowJo_v10.8.1 (FlowJo LLC). Geomean fluorescence intensity, gMFI, was determined and visualized using GraphPad Prism.

| Binder | EC50 |
| --- | --- |
| BisG1-FAPα-FERL/DR4-FERR (bispecific antibody, human IgG1, kappa, lambda, Human IgG1 bispecific made by controlled Fab-arm exchange of IgG1-FAPα-FERL and IgG1-DR4-FERR; monovalent for FAPα and for DR4; also called GEN1057) heavy 1: EVQLLESGGGLVQPGGSPRLSCEASGFTFSSYALSWVRQAPGKGLEWVSAISGSGGGRYYADSVKGRFTISRDNSKNTLFLQMNSLRAEDTAVYYCAKEGYSSSGTYWDHWGQGTLVTVSSASTKGPSVFPLAPSSKSTSGGTAALGCLVKDYFPEPVTVSWNSGALTSGVHTFPAVLQSSGLYSLSSVVTVPSSSLGTQTYICNVNHKPSNTKVDKRVEPKSCDKTHTCPPCPAPEFERGPSVFLFPPKPKDTLMISRTPEVTCVVVDVSHEDPEVKFNWYVDGVEVHNAKTKPREEQYNSTYRVVSVLTVLHQDWLNGKEYKCKVSNKALPAPIEKTISKAKGQPREPQVYTLPPSREEMTKNQVSLTCLVKGFYPSDIAVEWESNGQPENNYKTTPPVLDSDGSFLLYSKLTVDKSRWQQGNVFSCSVMHEALHNHYTQKSLSLSPG light 1: AIQMTQSPSSVSASVGDRVTITCRASQGVSSWLAWYQQKPGRAPKLLIYVASTLQSGVPSRFSGSGSGTDFTLTINSLQPEDFATYYCQQANSFPPTFGQGTRLEMKRTVAAPSVFIFPPSDEQLKSGTASVVCLLNNFYPREAKVQWKVDNALQSGNSQESVTEQDSKDSTYSLSSTLTLSKADYEKHKVYACEVTHQGLSSPVTKSFNRGEC heavy 2: QVQLQESGPGLVKPSGTLSLTCAVSGGSISSYSWWSWIRQPPGKGLEWIGELYHSGSTNYNPSLKSRVTISVDKSKNQFSLKLRSVTAADTAVYYCVRGVATIDYWGQGTLVTVSSASTKGPSVFPLAPSSKSTSGGTAALGCLVKDYFPEPVTVSWNSGALTSGVHTFPAVLQSSGLYSLSSVVTVPSSSLGTQTYICNVNHKPSNTKVDKRVEPKSCDKTHTCPPCPAPEFERGPSVFLFPPKPKDTLMISRTPEVTCVVVDVSHEDPEVKFNWYVDGVEVHNAKTKPREEQYNSTYRVVSVLTVLHQDWLNGKEYKCKVSNKALPAPIEKTISKAKGQPREPQVYTLPPSREEMTKNQVSLTCLVKGFYPSDIAVEWESNGQPENNYKTTPPVLDSDGSFFLYSRLTVDKSRWQQGNVFSCSVMHEALHNHYTQKSLSLSPG light 2: QSALTQPPSASGSPGQSVTISCTGTSSDVGGYNFVSWYQQDPGKAPKLLIYEVTKRPSGVPDRFSGSKSGNTASLTVSGLQAEDEADYYCSSYAGSNNVMFGGGTKLTVLGQPKAAPSVTLFPPSSEELQANKATLVCLISDFYPGAVTVAWKADSSPVKAGVETTTPSKQSNNKYAASSYLSLTPEQWKSHRSYSCQVTHEGSTVEKTVAPTECS | 0.203 µg/mL |
| BisG1-FAPα-FERL/b12-FERR (bispecific antibody, human IgG1, kappa) heavy 1: EVQLLESGGGLVQPGGSPRLSCEASGFTFSSYALSWVRQAPGKGLEWVSAISGSGGGRYYADSVKGRFTISRDNSKNTLFLQMNSLRAEDTAVYYCAKEGYSSSGTYWDHWGQGTLVTVSSASTKGPSVFPLAPSSKSTSGGTAALGCLVKDYFPEPVTVSWNSGALTSGVHTFPAVLQSSGLYSLSSVVTVPSSSLGTQTYICNVNHKPSNTKVDKRVEPKSCDKTHTCPPCPAPEFERGPSVFLFPPKPKDTLMISRTPEVTCVVVDVSHEDPEVKFNWYVDGVEVHNAKTKPREEQYNSTYRVVSVLTVLHQDWLNGKEYKCKVSNKALPAPIEKTISKAKGQPREPQVYTLPPSREEMTKNQVSLTCLVKGFYPSDIAVEWESNGQPENNYKTTPPVLDSDGSFLLYSKLTVDKSRWQQGNVFSCSVMHEALHNHYTQKSLSLSPG light 1: AIQMTQSPSSVSASVGDRVTITCRASQGVSSWLAWYQQKPGRAPKLLIYVASTLQSGVPSRFSGSGSGTDFTLTINSLQPEDFATYYCQQANSFPPTFGQGTRLEMKRTVAAPSVFIFPPSDEQLKSGTASVVCLLNNFYPREAKVQWKVDNALQSGNSQESVTEQDSKDSTYSLSSTLTLSKADYEKHKVYACEVTHQGLSSPVTKSFNRGEC heavy 2: QVQLVQSGAEVKKPGASVKVSCQASGYRFSNFVIHWVRQAPGQRFEWMGWINPYNGNKEFSAKFQDRVTFTADTSANTAYMELRSLRSADTAVYYCARVGPYSWDDSPQDNYYMDVWGKGTTVIVSSASTKGPSVFPLAPSSKSTSGGTAALGCLVKDYFPEPVTVSWNSGALTSGVHTFPAVLQSSGLYSLSSVVTVPSSSLGTQTYICNVNHKPSNTKVDKRVEPKSCDKTHTCPPCPAPEFERGPSVFLFPPKPKDTLMISRTPEVTCVVVDVSHEDPEVKFNWYVDGVEVHNAKTKPREEQYNSTYRVVSVLTVLHQDWLNGKEYKCKVSNKALPAPIEKTISKAKGQPREPQVYTLPPSREEMTKNQVSLTCLVKGFYPSDIAVEWESNGQPENNYKTTPPVLDSDGSFFLYSRLTVDKSRWQQGNVFSCSVMHEALHNHYTQKSLSLSPG light 2: EIVLTQSPGTLSLSPGERATFSCRSSHSIRSRRVAWYQHKPGQAPRLVIHGVSNRASGISDRFSGSGSGTDFTLTITRVEPEDFALYYCQVYGASSYTFGQGTKLERKRTVAAPSVFIFPPSDEQLKSGTASVVCLLNNFYPREAKVQWKVDNALQSGNSQESVTEQDSKDSTYSLSSTLTLSKADYEKHKVYACEVTHQGLSSPVTKSFNRGEC | 0.21 µg/mL |
